Laboratory results from patent publication US20170298096A1 (CANIMGUIDE THERAPEUTICS, published 2017).

T1: His-tagged P3028 peptide (PGE73) (human)
T1 construct: albumin-derived peptide, in solution at 0.5 ug/mL; not shown: His-tag
T1 peptide: VFDEFKPLVEEPQNLIK


Biological target: T1, His-tagged P3028 peptide (PGE73)
Assay: PEPSCAN ELISA, peptide on card
Description: After washing, the peroxidase substrate 2,2′-azine-di-3-ethylbenzthiazoline sulfonate (ABTS) and 2 μL of 3% H2O2 were added. The binding capacity of the mAb was measured as a color development at 405 nm (optical density, OD405). The color development was quantified with a charge-coupled device (CCD)—camera and an image processing system.
The OD405-values obtained by a CCD-camera was considered as raw data values (“rampo values,” “rampo units,” or “rampo scores”). […] First the CCD-camera made a picture of the card before peroxidase coloring and then again a picture after the peroxidase coloring. […] These values were copied into an excel file and labeled as a raw data file. One follow-up manipulation was allowed. Sometimes a well can contain an air-bubble resulting in a false-positive value. If manual inspection of the cards detect an air-bubble the value are set to 0 for that well.

| Binder | RAMPO Score |
| --- | --- |
| KKMDTFFVKLSLFTER [SEQ ID NO: 291 KKMDTFFVKLSLFTER] | 460 |
| KKLDTFFVKLSAFTER [SEQ ID NO: 350 KKLDTFFVKLSAFTER] | 462 |
| KKLDTIFVKLSLFTER [SEQ ID NO: 314 KKLDTIFVKLSLFTER] | 466 |
| KKLATFFVKLSLFTER [SEQ ID NO: 298 KKLATFFVKLSLFTER] | 494 |
| KKLDTFMVKLSLFTER [SEQ ID NO: 321 KKLDTFMVKLSLFTER] | 712 |
| KKLWTFFVKLSLFTER [SEQ ID NO: 302 KKLWTFFVKLSLFTER] | 443 |
| KKLDRFFVKLSLFTER [SEQ ID NO: 309 KKLDRFFVKLSLFTER] | 430 |
| KKQDTFFVKLSLFTER [SEQ ID NO: 293 KKQDTFFVKLSLFTER] | 473 |
| KKLDTPFVKLSLFTER [SEQ ID NO: 317 KKLDTPFVKLSLFTER] | 497 |
| KKLDTFFGKLSLFTER [SEQ ID NO: 327 KKLDTFFGKLSLFTER] | 379 |
| KKLDTFFVKLSHFTER [SEQ ID NO: 351 KKLDTFFVKLSHFTER] | 460 |
| KKLDTFQVKLSLFTER [SEQ ID NO: 322 KKLDTFQVKLSLFTER] | 511 |
| KKLDTFFVKYSLFTER [SEQ ID NO: 344 KKLDTFFVKYSLFTER] | 382 |
| KKLDTFFRKLSLFTER [SEQ ID NO: 330 KKLDTFFRKLSLFTER] | 365 |
| KKLDYFFVKLSLFTER [SEQ ID NO: 312 KKLDYFFVKLSLFTER] | 425 |
| KKLDTNFVKLSLFTER [SEQ ID NO: 316 KKLDTNFVKLSLFTER] | 446 |
| KKLDTFFVKLHLFTER [SEQ ID NO: 345 KKLDTFFVKLHLFTER] | 535 |
| KKLDTFFVKLSLCTER [SEQ ID NO: 362 KKLDTFFVKLSLCTER] | 400 |
| KKLDTFFVKLSRFTER [SEQ ID NO: 356 KKLDTFFVKLSRFTER] | 483 |
| KKLDTFFVRLSLFTER [SEQ ID NO: 331 KKLDTFFVRLSLFTER] | 374 |
| KKLDNFFVKLSLFTER [SEQ ID NO: 306 KKLDNFFVKLSLFTER] | 436 |
| KKLDCFFVKLSLFTER [SEQ ID NO: 304 KKLDCFFVKLSLFTER] | 449 |
| KKLDTMFVKLSLFTER [SEQ ID NO: 315 KKLDTMFVKLSLFTER] | 467 |
| KKLDTFFVKVSLFTER [SEQ ID NO: 343 KKLDTFFVKVSLFTER] | 658 |

| Binder | RAMPO Score |
| --- | --- |
| KKLDTFFVKTSLFTER [SEQ ID NO: 342 KKLDTFFVKTSLFTER] | 399 |
| KKLDQFFVKLSLFTER [SEQ ID NO: 308 KKLDQFFVKLSLFTER] | 535 |
| KKLDTFFVKRSLFTER [SEQ ID NO: 340 KKLDTFFVKRSLFTER] | 439 |
| KKLDTFFVKLSSFTER [SEQ ID NO: 357 KKLDTFFVKLSSFTER] | 478 |
| KKLDTFFLKLSLFTER [SEQ ID NO: 328 KKLDTFFLKLSLFTER] | 411 |
| KKLDTFFVKLSLATER [SEQ ID NO: 361 KKLDTFFVKLSLATER] | 525 |
| KKLDTFFVKASLFTER [SEQ ID NO: 332 KKLDTFFVKASLFTER] | 426 |
| KKLDPFFVKLSLFTER [SEQ ID NO: 307 KKLDPFFVKLSLFTER] | 427 |
| KKLDTFFVKLSNFTER [SEQ ID NO: 354 KKLDTFFVKLSNFTER] | 462 |
| KKTDTFFVKLSLFTER [SEQ ID NO: 296 KKTDTFFVKLSLFTER] | 451 |
| KKLDTTFVKLSLFTER [SEQ ID NO: 318 KKLDTTFVKLSLFTER] | 481 |
| KKLDMFFVKLSLFTER [SEQ ID NO: 305 KKLDMFFVKLSLFTER] | 475 |
| KKLYTFFVKLSLFTER [SEQ ID NO: 303 KKLYTFFVKLSLFTER] | 422 |
| KKLETFFVKLSLFTER [SEQ ID NO: 299 KKLETFFVKLSLFTER] | 417 |
| KKLDTFLVKLSLFTER [SEQ ID NO: 320 KKLDTFLVKLSLFTER] | 517 |
| KKLDTFFVKLNLFTER [SEQ ID NO: 347 KKLDTFFVKLNLFTER] | 451 |
| KKVDTFFVKLSLFTER [SEQ ID NO: 297 KKVDTFFVKLSLFTER] | 377 |
| KKLDTFFVKPSLFTER [SEQ ID NO: 338 KKLDTFFVKPSLFTER] | 436 |
| KKLDTFFVKNSLFTER [SEQ ID NO: 337 KKLDTFFVKNSLFTER] | 365 |
| KKLDTFFVKLSWFTER [SEQ ID NO: 360 KKLDTFFVKLSWFTER] | 409 |
| KKLDTFFVKSSLFTER [SEQ ID NO: 341 KKLDTFFVKSSLFTER] | 351 |
| KKLDTFFVKLTLFTER [SEQ ID NO: 349 KKLDTFFVKLTLFTER] | 520 |
| KKLDTFFVKQSLFTER [SEQ ID NO: 339 KKLDTFFVKQSLFTER] | 470 |
| KKNDTFFVKLSLFTER [SEQ ID NO: 292 KKNDTFFVKLSLFTER] | 374 |

| Binder | RAMPO Score |
| --- | --- |
| KKLDSFFVKLSLFTER [SEQ ID NO: 310 KKLDSFFVKLSLFTER] | 458 |
| KKLDTFFVKLSVFTER [SEQ ID NO: 359 KKLDTFFVKLSVFTER] | 545 |
| KKLDWFFVKLSLFTER [SEQ ID NO: 311 KKLDWFFVKLSLFTER] | 418 |
| KKLDTFFVKLMLFTER [SEQ ID NO: 346 KKLDTFFVKLMLFTER] | 744 |
| KKLDTFFVKMSLFTER [SEQ ID NO: 336 KKLDTFFVKMSLFTER] | 460 |
| KKLDTFFVKLSIFTER [SEQ ID NO: 352 KKLDTFFVKLSIFTER] | 456 |
| KKLITFFVKLSLFTER [SEQ ID NO: 300 KKLITFFVKLSLFTER] | 430 |
| KKLDTFFVKLSQFTER [SEQ ID NO: 355 KKLDTFFVKLSQFTER] | 651 |
| KKLDTFFVKLSMFTER [SEQ ID NO: 353 KKLDTFFVKLSMFTER] | 499 |
| KKLDTVFVKLSLFTER [SEQ ID NO: 319 KKLDTVFVKLSLFTER] | 547 |
| KKLDTFFPKLSLFTER (also called 32251) [SEQ ID NO: 329 KKLDTFFPKLSLFTER] | 456 |
| KKLDTFVVKLSLFTER [SEQ ID NO: 325 KKLDTFVVKLSLFTER] | 527 |
| KKLDTFFVKFSLFTER [SEQ ID NO: 333 KKLDTFFVKFSLFTER] | 403 |
| KKLDTFFFKLSLFTER [SEQ ID NO: 326 KKLDTFFFKLSLFTER] | 358 |
| KKLDTFSVKLSLFTER [SEQ ID NO: 323 KKLDTFSVKLSLFTER] | 700 |
| KKLVTFFVKLSLFTER [SEQ ID NO: 301 KKLVTFFVKLSLFTER] | 424 |
| KKLDTFFVKLQLFTER (also called 30678) [SEQ ID NO: 348 KKLDTFFVKLQLFTER] | 768 |
| KKLDTFTVKLSLFTER [SEQ ID NO: 324 KKLDTFTVKLSLFTER] | 517 |
| KKLDTFFVKLSTFTER [SEQ ID NO: 358 KKLDTFFVKLSTFTER] | 437 |
| KKLDTFFVKISLFTER [SEQ ID NO: 335 KKLDTFFVKISLFTER] | 415 |
| KKSDTFFVKLSLFTER [SEQ ID NO: 295 KKSDTFFVKLSLFTER] | 393 |
| KKRDTFFVKLSLFTER [SEQ ID NO: 294 KKRDTFFVKLSLFTER] | 370 |
| KKLDTFFVKGSLFTER [SEQ ID NO: 334 KKLDTFFVKGSLFTER] | 495 |
| KKLDTAFVKLSLFTER [SEQ ID NO: 313 KKLDTAFVKLSLFTER] | 575 |
